Results from patent US20250270308A1 (UCB, published 2025).

Molecular target: T1, human TNFα in complex with compound (1) (human, UniProt P01375 77-233)
T1 construct: also called human TNFα + compound (1); compound-distorted human TNFα
Assay: size exclusion HPLC

T1 sequence (P01375 77-233 limits assumed, one chain of several): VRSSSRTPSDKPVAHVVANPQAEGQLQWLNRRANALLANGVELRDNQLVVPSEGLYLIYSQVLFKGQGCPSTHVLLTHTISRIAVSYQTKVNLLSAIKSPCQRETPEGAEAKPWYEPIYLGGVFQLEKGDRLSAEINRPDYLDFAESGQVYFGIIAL

stoichiometry: 1 Fab per TNFα trimer
B1: CA185_01979 mouse Fab (no hinge) (Fab, V domains shown)
VH: EVHLVESGPGLVKPSQSLSLTCSVTGYSITNSYWDWIRKFPGNKMEWMGYINYSGSTGYNPSLKSRISISRDTSNNQFFLQLNSITTEDTATYYCARGTYGYNAYHFDYWGRGVMVTVSS
VL: DIQMTQSPASLSASLEEIVTITCQASQDIGNWLSWYQQKPGKSPHLLIYGTTSLADGVPSRFSGSRSGTQYSLKISGLQVADIGIYVCLQAYSTPFTFGSGTKLEIKR
notes: also called CA185_01979 mFab; CA185-01979 Fab fragment
